The supplement of paper PMC9112550, “Optimization of the antimicrobial peptide Bac7 by deep mutational scanning” (BMC Biology, 2022)

Test system: Escherichia coli TOP10
Assay: shrunken log2 fold change of peptide-encoding DNA abundance (4.5 h post-induction vs induction); higher = less antimicrobial activity (less host growth inhibition)
Details: time post-induction: 4.5 h; library: site-saturation at positions 5, 18, 19, 20
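Also: peptides expressed intracellularly from a pBAD plasmid library in pooled LB shake-flask culture, induced with 0.3% L-arabinose, DNA abundance read by NGS, three biological replicates, DESeq2 with apeglm shrinkage.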

In the case of RRIRERPPRLPRPRPRPYVMPRP, the “shrunken log2 fold change” value is reported as -0.401.
For RRIRWRPPRLPRPRPRPIDFPRP, the “shrunken log2 fold change” value was -3.4e-05.
With RRIRQRPPRLPRPRPRPEYCPRP the “shrunken log2 fold change” value was -0.0411.
RRIRKRPPRLPRPRPRPVDMPRP was tested, and the “shrunken log2 fold change” value was -0.122.
For RRIRYRPPRLPRPRPRPQYFPRP, the “shrunken log2 fold change” value was -1.64.
With RRIRDRPPRLPRPRPRPEYYPRP the “shrunken log2 fold change” value was -0.00627.
With RRIRYRPPRLPRPRPRPIVAPRP the “shrunken log2 fold change” value was -0.246.
RRIRMRPPRLPRPRPRPRWFPRP was tested, and the “shrunken log2 fold change” value was 0.717.
With RRIRKRPPRLPRPRPRPFCFPRP the “shrunken log2 fold change” value was 1.24.
In the case of RRIRKRPPRLPRPRPRPPLSPRP, the “shrunken log2 fold change” value is reported as 0.832.
In the case of RRIRDRPPRLPRPRPRPNHCPRP, the “shrunken log2 fold change” value is reported as 0.0177.
RRIRWRPPRLPRPRPRPWKFPRP was tested, and the “shrunken log2 fold change” value was 0.0588.
In the case of RRIRARPPRLPRPRPRPLDIPRP, the “shrunken log2 fold change” value is reported as 0.0659.
RRIRTRPPRLPRPRPRPKVAPRP was tested, and the “shrunken log2 fold change” value was 0.0317.
In the case of RRIRPRPPRLPRPRPRPFMDPRP, the “shrunken log2 fold change” value is reported as -0.248.
In the case of RRIRSRPPRLPRPRPRPEWMPRP, the “shrunken log2 fold change” value is reported as 0.0203.
In the case of RRIRGRPPRLPRPRPRPWNCPRP, the “shrunken log2 fold change” value is reported as -0.101.
RRIRFRPPRLPRPRPRPWCGPRP was tested, and the “shrunken log2 fold change” value was -0.142.
For RRIRTRPPRLPRPRPRPQSPPRP, the “shrunken log2 fold change” value was -0.0309.
RRIRDRPPRLPRPRPRPEFDPRP was tested, and the “shrunken log2 fold change” value was 0.375.
RRIRMRPPRLPRPRPRPECAPRP was tested, and the “shrunken log2 fold change” value was 3.56.
With RRIRGRPPRLPRPRPRPTSMPRP the “shrunken log2 fold change” value was 0.643.
RRIRERPPRLPRPRPRPHRAPRP was tested, and the “shrunken log2 fold change” value was -0.0349.
In the case of RRIRCRPPRLPRPRPRPFTRPRP, the “shrunken log2 fold change” value is reported as -0.291.
In the case of RRIRWRPPRLPRPRPRPVSCPRP, the “shrunken log2 fold change” value is reported as 0.0517.
In the case of RRIRPRPPRLPRPRPRPCSVPRP, the “shrunken log2 fold change” value is reported as 0.0152.
With RRIRKRPPRLPRPRPRPPLGPRP the “shrunken log2 fold change” value was 0.668.
For RRIRIRPPRLPRPRPRPTEWPRP, the “shrunken log2 fold change” value was 0.133.
For RRIRHRPPRLPRPRPRPWTHPRP, the “shrunken log2 fold change” value was -0.00208.
With RRIRERPPRLPRPRPRPWLAPRP the “shrunken log2 fold change” value was 0.564.
In the case of RRIRQRPPRLPRPRPRPFIHPRP, the “shrunken log2 fold change” value is reported as -0.876.
For RRIRGRPPRLPRPRPRPTWPPRP, the “shrunken log2 fold change” value was 0.52.
RRIRFRPPRLPRPRPRPCSTPRP was tested, and the “shrunken log2 fold change” value was -0.177.
RRIRGRPPRLPRPRPRPIWTPRP was tested, and the “shrunken log2 fold change” value was 0.352.
For RRIRLRPPRLPRPRPRPHYTPRP, the “shrunken log2 fold change” value was -0.118.
RRIRNRPPRLPRPRPRPTLYPRP was tested, and the “shrunken log2 fold change” value was -0.3.
RRIRMRPPRLPRPRPRPRVWPRP was tested, and the “shrunken log2 fold change” value was 2.08.
For RRIRSRPPRLPRPRPRPDVEPRP, the “shrunken log2 fold change” value was 0.00664.
In the case of RRIRKRPPRLPRPRPRPNAAPRP, the “shrunken log2 fold change” value is reported as 0.986.
RRIRMRPPRLPRPRPRPSAQPRP was tested, and the “shrunken log2 fold change” value was 0.623.
RRIRERPPRLPRPRPRPDWYPRP was tested, and the “shrunken log2 fold change” value was -0.297.
In the case of RRIRGRPPRLPRPRPRPQSPPRP, the “shrunken log2 fold change” value is reported as 0.225.
In the case of RRIRGRPPRLPRPRPRPRGWPRP, the “shrunken log2 fold change” value is reported as 1.68.
With RRIRYRPPRLPRPRPRPFMDPRP the “shrunken log2 fold change” value was -0.2.
In the case of RRIRDRPPRLPRPRPRPCILPRP, the “shrunken log2 fold change” value is reported as 1.16.
In the case of RRIRLRPPRLPRPRPRPAMHPRP, the “shrunken log2 fold change” value is reported as 0.0794.
RRIRCRPPRLPRPRPRPLCPPRP was tested, and the “shrunken log2 fold change” value was -0.254.
RRIRERPPRLPRPRPRPRVDPRP was tested, and the “shrunken log2 fold change” value was 0.0531.
For RRIRFRPPRLPRPRPRPIIEPRP, the “shrunken log2 fold change” value was -0.747.
RRIRNRPPRLPRPRPRPGGDPRP was tested, and the “shrunken log2 fold change” value was 0.00185.
In the case of RRIRGRPPRLPRPRPRPCLKPRP, the “shrunken log2 fold change” value is reported as 0.213.
RRIRFRPPRLPRPRPRPRIWPRP was tested, and the “shrunken log2 fold change” value was 0.051.
RRIRMRPPRLPRPRPRPIFWPRP was tested, and the “shrunken log2 fold change” value was 0.337.
RRIRPRPPRLPRPRPRPPNVPRP was tested, and the “shrunken log2 fold change” value was -0.0451.
RRIRSRPPRLPRPRPRPCGAPRP was tested, and the “shrunken log2 fold change” value was 0.327.
With RRIRMRPPRLPRPRPRPGVWPRP the “shrunken log2 fold change” value was 0.723.
RRIRDRPPRLPRPRPRPEQMPRP was tested, and the “shrunken log2 fold change” value was 0.861.
RRIRTRPPRLPRPRPRPPWWPRP was tested, and the “shrunken log2 fold change” value was 0.928.
RRIRQRPPRLPRPRPRPEGAPRP was tested, and the “shrunken log2 fold change” value was 0.852.
For RRIRIRPPRLPRPRPRPPFSPRP, the “shrunken log2 fold change” value was -0.245.
In the case of RRIRSRPPRLPRPRPRPFMHPRP, the “shrunken log2 fold change” value is reported as -0.321.
For RRIRLRPPRLPRPRPRPIYFPRP, the “shrunken log2 fold change” value was -0.37.
With RRIRKRPPRLPRPRPRPWILPRP the “shrunken log2 fold change” value was -0.14.
For RRIRMRPPRLPRPRPRPFLLPRP, the “shrunken log2 fold change” value was -0.227.
With RRIRMRPPRLPRPRPRPDFNPRP the “shrunken log2 fold change” value was 0.0763.
For RRIRNRPPRLPRPRPRPKKAPRP, the “shrunken log2 fold change” value was -0.0485.
In the case of RRIRWRPPRLPRPRPRPCWPPRP, the “shrunken log2 fold change” value is reported as 0.427.
RRIRRRPPRLPRPRPRPQYLPRP was tested, and the “shrunken log2 fold change” value was -0.0489.
For RRIRERPPRLPRPRPRPQGTPRP, the “shrunken log2 fold change” value was 0.0468.
RRIRMRPPRLPRPRPRPYTMPRP was tested, and the “shrunken log2 fold change” value was -0.06.
RRIRSRPPRLPRPRPRPDMFPRP was tested, and the “shrunken log2 fold change” value was -0.212.
In the case of RRIRMRPPRLPRPRPRPGWYPRP, the “shrunken log2 fold change” value is reported as -0.277.
For RRIRGRPPRLPRPRPRPVHDPRP, the “shrunken log2 fold change” value was -0.0619.
For RRIRARPPRLPRPRPRPFTEPRP, the “shrunken log2 fold change” value was -0.261.
RRIRMRPPRLPRPRPRPEDMPRP was tested, and the “shrunken log2 fold change” value was 3.26.
In the case of RRIRTRPPRLPRPRPRPDFFPRP, the “shrunken log2 fold change” value is reported as 0.175.
RRIRRRPPRLPRPRPRPVDPPRP was tested, and the “shrunken log2 fold change” value was 0.253.
For RRIRQRPPRLPRPRPRPRDLPRP, the “shrunken log2 fold change” value was 0.412.
With RRIRWRPPRLPRPRPRPMVHPRP the “shrunken log2 fold change” value was 0.0275.
RRIRQRPPRLPRPRPRPVKWPRP was tested, and the “shrunken log2 fold change” value was 0.746.
For RRIRRRPPRLPRPRPRPQPHPRP, the “shrunken log2 fold change” value was 0.396.
In the case of RRIRHRPPRLPRPRPRPQEHPRP, the “shrunken log2 fold change” value is reported as -0.389.
For RRIRFRPPRLPRPRPRPFDNPRP, the “shrunken log2 fold change” value was -0.31.
In the case of RRIRSRPPRLPRPRPRPEPGPRP, the “shrunken log2 fold change” value is reported as 0.197.
RRIRHRPPRLPRPRPRPPCNPRP was tested, and the “shrunken log2 fold change” value was -0.221.
RRIRGRPPRLPRPRPRPETRPRP was tested, and the “shrunken log2 fold change” value was 0.109.
In the case of RRIRARPPRLPRPRPRPTEMPRP, the “shrunken log2 fold change” value is reported as -0.00782.
In the case of RRIRTRPPRLPRPRPRPMYPPRP, the “shrunken log2 fold change” value is reported as 0.0537.
RRIRFRPPRLPRPRPRPHRQPRP was tested, and the “shrunken log2 fold change” value was -0.228.
For RRIRARPPRLPRPRPRPPPFPRP, the “shrunken log2 fold change” value was 0.762.
With RRIRRRPPRLPRPRPRPYVQPRP the “shrunken log2 fold change” value was 0.0531.
With RRIRLRPPRLPRPRPRPRNLPRP the “shrunken log2 fold change” value was -0.0507.
RRIRLRPPRLPRPRPRPPPIPRP was tested, and the “shrunken log2 fold change” value was 0.935.
With RRIRQRPPRLPRPRPRPKQGPRP the “shrunken log2 fold change” value was 0.401.
RRIRKRPPRLPRPRPRPELQPRP was tested, and the “shrunken log2 fold change” value was 0.307.
With RRIRGRPPRLPRPRPRPLYEPRP the “shrunken log2 fold change” value was 0.913.
RRIRCRPPRLPRPRPRPCVVPRP was tested, and the “shrunken log2 fold change” value was -0.474.
RRIRKRPPRLPRPRPRPTPHPRP was tested, and the “shrunken log2 fold change” value was 0.653.
RRIRYRPPRLPRPRPRPGTWPRP was tested, and the “shrunken log2 fold change” value was 0.585.
For RRIRWRPPRLPRPRPRPCGSPRP, the “shrunken log2 fold change” value was -0.0157.
For RRIRFRPPRLPRPRPRPKYLPRP, the “shrunken log2 fold change” value was -0.451.
For RRIRLRPPRLPRPRPRPYFMPRP, the “shrunken log2 fold change” value was -0.855.
For RRIRERPPRLPRPRPRPYFAPRP, the “shrunken log2 fold change” value was -0.373.
RRIRHRPPRLPRPRPRPKQCPRP was tested, and the “shrunken log2 fold change” value was -0.224.
With RRIRHRPPRLPRPRPRPSMNPRP the “shrunken log2 fold change” value was -0.253.
For RRIRTRPPRLPRPRPRPNMDPRP, the “shrunken log2 fold change” value was -0.508.
With RRIRYRPPRLPRPRPRPTWWPRP the “shrunken log2 fold change” value was 0.134.
RRIRERPPRLPRPRPRPNNFPRP was tested, and the “shrunken log2 fold change” value was -0.0786.
In the case of RRIRCRPPRLPRPRPRPRVSPRP, the “shrunken log2 fold change” value is reported as 0.064.
With RRIRDRPPRLPRPRPRPYAGPRP the “shrunken log2 fold change” value was 0.0325.
RRIRIRPPRLPRPRPRPEVEPRP was tested, and the “shrunken log2 fold change” value was -0.0136.
With RRIRPRPPRLPRPRPRPKEEPRP the “shrunken log2 fold change” value was 0.0604.
RRIRTRPPRLPRPRPRPIAKPRP was tested, and the “shrunken log2 fold change” value was -0.3.
With RRIRCRPPRLPRPRPRPQKGPRP the “shrunken log2 fold change” value was -0.133.
RRIRNRPPRLPRPRPRPKTYPRP was tested, and the “shrunken log2 fold change” value was -1.23.
With RRIRPRPPRLPRPRPRPRNQPRP the “shrunken log2 fold change” value was 0.00569.
For RRIRDRPPRLPRPRPRPHHMPRP, the “shrunken log2 fold change” value was -0.128.
In the case of RRIRARPPRLPRPRPRPPARPRP, the “shrunken log2 fold change” value is reported as 0.874.
For RRIRYRPPRLPRPRPRPFKIPRP, the “shrunken log2 fold change” value was 0.0602.
In the case of RRIRYRPPRLPRPRPRPEWNPRP, the “shrunken log2 fold change” value is reported as -0.861.
RRIRKRPPRLPRPRPRPQINPRP was tested, and the “shrunken log2 fold change” value was -0.159.
RRIRDRPPRLPRPRPRPYKAPRP was tested, and the “shrunken log2 fold change” value was -0.0157.
With RRIRIRPPRLPRPRPRPGISPRP the “shrunken log2 fold change” value was -0.27.
For RRIRTRPPRLPRPRPRPTEYPRP, the “shrunken log2 fold change” value was -0.245.
In the case of RRIRKRPPRLPRPRPRPTGHPRP, the “shrunken log2 fold change” value is reported as 0.348.
